Results from article PMC13186983.

Key:
[1] = target: YA4-mutant 26S proteasome, reconstituted, LD655 acceptor-labeled on Rpt1, biotinylated core (S. cerevisiae | yeast) (UniProt P33299)
[2] = target: wild-type 26S proteasome, reconstituted, LD655 acceptor-labeled on Rpt1, biotinylated core (S. cerevisiae | yeast) (UniProt P33299)
[3] = target: YA6-mutant 26S proteasome, reconstituted, LD655 acceptor-labeled on Rpt1, biotinylated core (S. cerevisiae | yeast) (UniProt P33299)
[4] = target: T1, Rpt3 (ATPase subunit of the yeast 26S proteasome) (S. cerevisiae) (UniProt P33298)
T1 sequence: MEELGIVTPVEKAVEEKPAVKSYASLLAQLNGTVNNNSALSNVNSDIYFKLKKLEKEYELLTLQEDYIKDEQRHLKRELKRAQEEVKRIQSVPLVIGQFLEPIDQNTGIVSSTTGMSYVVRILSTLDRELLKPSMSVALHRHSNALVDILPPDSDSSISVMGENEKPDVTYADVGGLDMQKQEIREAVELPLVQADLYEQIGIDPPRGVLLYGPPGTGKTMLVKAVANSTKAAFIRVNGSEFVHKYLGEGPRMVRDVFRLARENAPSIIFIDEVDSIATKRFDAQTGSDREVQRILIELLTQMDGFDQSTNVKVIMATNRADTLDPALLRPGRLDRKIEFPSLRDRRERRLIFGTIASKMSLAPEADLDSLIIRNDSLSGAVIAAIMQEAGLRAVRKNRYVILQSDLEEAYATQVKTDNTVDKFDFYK

[5] = target: T1, Rpt3 (ATPase subunit of the yeast 26S proteasome) (S. cerevisiae); remark: listed apart in the source
[6] = target: YA4-mutant 26S proteasome, reconstituted, LD655 acceptor-labeled on Rpt1, biotinylated core (S. cerevisiae | yeast) (UniProt P33299); remark: listed apart in the source
[7] = target: wild-type 26S proteasome, reconstituted, LD655 acceptor-labeled on Rpt1, biotinylated core (S. cerevisiae | yeast) (UniProt P33299); remark: listed apart in the source
[8] = target: YA6-mutant 26S proteasome, reconstituted, LD655 acceptor-labeled on Rpt1, biotinylated core (S. cerevisiae | yeast) (UniProt P33299); remark: listed apart in the source

A combined time constant for substrate binding, tail insertion and engagement; bulk stopped-flow FRET, Cy3-labeled proteasome with oPA, 2 µM Cy5-labeled substrate, 25 °C [1] of 14.3 s, a combined time constant for substrate binding, tail insertion and engagement; bulk stopped-flow FRET, Cy3-labeled proteasome with oPA, 2 µM Cy5-labeled substrate, 25 °C [2] of 6.8 s and a combined time constant for substrate binding, tail insertion and engagement; bulk stopped-flow FRET, Cy3-labeled proteasome with oPA, 2 µM Cy5-labeled substrate, 25 °C [3] of 18 s were found for “ubiquitinated titin I27^V15P substrate, LD555 donor-labeled (from UniProt P0CG63 1-76)” in this work.

A basal ATPase rate of the reconstituted YA6 proteasome (NADH-coupled assay) [4] of 101 min⁻¹ was found for “Rpt6 with the pore-1 loop Tyr to Ala mutation (YA6) (from UniProt Q01939 1-405) (natural protein)” in this work.

A basal ATPase rate of the reconstituted proteasome with Rpt6 K141A (NADH-coupled assay) [5] of 87 min⁻¹ was found for “Rpt6 K141A (from UniProt Q01939 1-405) (natural protein)” in this work.

A basal ATPase rate of the reconstituted proteasome with Rpt6 E140A (NADH-coupled assay) [5] of 108 min⁻¹ was found for “Rpt6 E140A (from UniProt Q01939 1-405) (natural protein)” in this work.

A frequency of terminal release of titin I27 during the unfolding dwell, single-molecule FRET [6] of 37.5%, a frequency of terminal release of titin I27 during the unfolding dwell, single-molecule FRET [7] of 18.1% and a frequency of terminal release of titin I27 during the unfolding dwell, single-molecule FRET [8] of 33.3% were found for “ubiquitinated titin I27 substrate, LD555 donor-labeled (from UniProt P0CG63 1-76)” in this work.
